The text below walks through data of PMC10786891, “Massively parallel profiling of RNA-targeting CRISPR-Cas13d”.

Sequences and labels used below:
B1: target 1 insA 3' of 11,insG 3' of 6 (mixed)
RNA 1: CACCCGUGCAAAAAUGCAGGGGUCUAAAACUGAGCGGAUAACCUCUCUAUGG
RNA 2: GGGAAUGGAUCCACAUCUACGAAUUCGUACCAUAGAGAGGUAUAUCCGGCUCACCGAGAUCGGAAGAGCACACGU
B2: target 1 A1U,U19G (mixed)
RNA 1: CACCCGUGCAAAAAUGCAGGGGUCUAAAACUGAGCGGAUAACCUCUCUAUGG
RNA 2: GGGAAUGGAUCCACAUCUACGAAUUCGUACCAGAGAGAGGUUAUCCGCUCUCCGAGAUCGGAAGAGCACACGU
B3: target 1 insA 3' of 6,insA 3' of 4 (mixed)
RNA 1: CACCCGUGCAAAAAUGCAGGGGUCUAAAACUGAGCGGAUAACCUCUCUAUGG
RNA 2: GGGAAUGGAUCCACAUCUACGAAUUCGUACCAUAGAGAGGUUAUCCAGCAUCACCGAGAUCGGAAGAGCACACGU
B4: target 1 A1U,U10G (mixed)
RNA 1: CACCCGUGCAAAAAUGCAGGGGUCUAAAACUGAGCGGAUAACCUCUCUAUGG
RNA 2: GGGAAUGGAUCCACAUCUACGAAUUCGUACCAUAGAGAGGUGAUCCGCUCUCCGAGAUCGGAAGAGCACACGU
B5: target 1 C2A,A18U (mixed)
RNA 1: CACCCGUGCAAAAAUGCAGGGGUCUAAAACUGAGCGGAUAACCUCUCUAUGG
RNA 2: GGGAAUGGAUCCACAUCUACGAAUUCGUACCAUUGAGAGGUUAUCCGCUAACCGAGAUCGGAAGAGCACACGU
B6: target 1 insC 3' of 11,insC 3' of 5 (mixed)
RNA 1: CACCCGUGCAAAAAUGCAGGGGUCUAAAACUGAGCGGAUAACCUCUCUAUGG
RNA 2: GGGAAUGGAUCCACAUCUACGAAUUCGUACCAUAGAGAGGUCUAUCCGCCUCACCGAGAUCGGAAGAGCACACGU
B7: target 1 C6G,A9C (mixed)
RNA 1: CACCCGUGCAAAAAUGCAGGGGUCUAAAACUGAGCGGAUAACCUCUCUAUGG
RNA 2: GGGAAUGGAUCCACAUCUACGAAUUCGUACCAUAGAGAGGUUCUCGGCUCACCGAGAUCGGAAGAGCACACGU
B8: target 1 insA 3' of 11,insA 3' of 4 (mixed)
RNA 1: CACCCGUGCAAAAAUGCAGGGGUCUAAAACUGAGCGGAUAACCUCUCUAUGG
RNA 2: GGGAAUGGAUCCACAUCUACGAAUUCGUACCAUAGAGAGGUAUAUCCGCAUCACCGAGAUCGGAAGAGCACACGU
B9: target 1 G12U,A14C (mixed)
RNA 1: CACCCGUGCAAAAAUGCAGGGGUCUAAAACUGAGCGGAUAACCUCUCUAUGG
RNA 2: GGGAAUGGAUCCACAUCUACGAAUUCGUACCAUAGAGCGUUUAUCCGCUCACCGAGAUCGGAAGAGCACACGU
B10: target 1 U10G (mixed)
RNA 1: CACCCGUGCAAAAAUGCAGGGGUCUAAAACUGAGCGGAUAACCUCUCUAUGG
RNA 2: GGGAAUGGAUCCACAUCUACGAAUUCGUACCAUAGAGAGGUGAUCCGCUCACCGAGAUCGGAAGAGCACACGU
B11: target 1 insA 3' of 7,insU 3' of 7 (mixed)
RNA 1: CACCCGUGCAAAAAUGCAGGGGUCUAAAACUGAGCGGAUAACCUCUCUAUGG
RNA 2: GGGAAUGGAUCCACAUCUACGAAUUCGUACCAUAGAGAGGUUAUCAUCGCUCACCGAGAUCGGAAGAGCACACGU
B12: target 1 insG 3' of 19,insC 3' of 1 (mixed)
RNA 1: CACCCGUGCAAAAAUGCAGGGGUCUAAAACUGAGCGGAUAACCUCUCUAUGG
RNA 2: GGGAAUGGAUCCACAUCUACGAAUUCGUACCAUGAGAGAGGUUAUCCGCUCACCCGAGAUCGGAAGAGCACACGU
B13: target 1 insG 3' of 19,insA 3' of 2 (mixed)
RNA 1: CACCCGUGCAAAAAUGCAGGGGUCUAAAACUGAGCGGAUAACCUCUCUAUGG
RNA 2: GGGAAUGGAUCCACAUCUACGAAUUCGUACCAUGAGAGAGGUUAUCCGCUCAACCGAGAUCGGAAGAGCACACGU
B14: target 1 insC 3' of 15,insG 3' of 1 (mixed)
RNA 1: CACCCGUGCAAAAAUGCAGGGGUCUAAAACUGAGCGGAUAACCUCUCUAUGG
RNA 2: GGGAAUGGAUCCACAUCUACGAAUUCGUACCAUAGAGCAGGUUAUCCGCUCAGCCGAGAUCGGAAGAGCACACGU
B15: target 1 insU 3' of 21,insU 3' of 20 (mixed)
RNA 1: CACCCGUGCAAAAAUGCAGGGGUCUAAAACUGAGCGGAUAACCUCUCUAUGG
RNA 2: GGGAAUGGAUCCACAUCUACGAAUUCGUACCUAUUAGAGAGGUUAUCCGCUCACCGAGAUCGGAAGAGCACACGU
B16: target 1 G13A,A16C (mixed)
RNA 1: CACCCGUGCAAAAAUGCAGGGGUCUAAAACUGAGCGGAUAACCUCUCUAUGG
RNA 2: GGGAAUGGAUCCACAUCUACGAAUUCGUACCAUAGCGAAGUUAUCCGCUCACCGAGAUCGGAAGAGCACACGU
B17: target 1 insA 3' of 6,insC 3' of 3 (mixed)
RNA 1: CACCCGUGCAAAAAUGCAGGGGUCUAAAACUGAGCGGAUAACCUCUCUAUGG
RNA 2: GGGAAUGGAUCCACAUCUACGAAUUCGUACCAUAGAGAGGUUAUCCAGCUCCACCGAGAUCGGAAGAGCACACGU
B18: target 1 U11G,A18U (mixed)
RNA 1: CACCCGUGCAAAAAUGCAGGGGUCUAAAACUGAGCGGAUAACCUCUCUAUGG
RNA 2: GGGAAUGGAUCCACAUCUACGAAUUCGUACCAUUGAGAGGGUAUCCGCUCACCGAGAUCGGAAGAGCACACGU
B19: target 1 insG 3' of 19,insG 3' of 1 (mixed)
RNA 1: CACCCGUGCAAAAAUGCAGGGGUCUAAAACUGAGCGGAUAACCUCUCUAUGG
RNA 2: GGGAAUGGAUCCACAUCUACGAAUUCGUACCAUGAGAGAGGUUAUCCGCUCAGCCGAGAUCGGAAGAGCACACGU
B20: target 1 A1C,U10G (mixed)
RNA 1: CACCCGUGCAAAAAUGCAGGGGUCUAAAACUGAGCGGAUAACCUCUCUAUGG
RNA 2: GGGAAUGGAUCCACAUCUACGAAUUCGUACCAUAGAGAGGUGAUCCGCUCCCCGAGAUCGGAAGAGCACACGU
B21: target 1 insC 3' of 12,insU 3' of 7 (mixed)
RNA 1: CACCCGUGCAAAAAUGCAGGGGUCUAAAACUGAGCGGAUAACCUCUCUAUGG
RNA 2: GGGAAUGGAUCCACAUCUACGAAUUCGUACCAUAGAGAGGCUUAUCUCGCUCACCGAGAUCGGAAGAGCACACGU
B22: target 1 insG 3' of 11,insG 3' of 8 (mixed)
RNA 1: CACCCGUGCAAAAAUGCAGGGGUCUAAAACUGAGCGGAUAACCUCUCUAUGG
RNA 2: GGGAAUGGAUCCACAUCUACGAAUUCGUACCAUAGAGAGGUGUAUGCCGCUCACCGAGAUCGGAAGAGCACACGU
B23: target 1 insU 3' of 7 (mixed)
RNA 1: CACCCGUGCAAAAAUGCAGGGGUCUAAAACUGAGCGGAUAACCUCUCUAUGG
RNA 2: GGGAAUGGAUCCACAUCUACGAAUUCGUACCAUAGAGAGGUUAUCUCGCUCACCGAGAUCGGAAGAGCACACGU
B24: target 1 insA 3' of 13,insA 3' of 3 (mixed)
RNA 1: CACCCGUGCAAAAAUGCAGGGGUCUAAAACUGAGCGGAUAACCUCUCUAUGG
RNA 2: GGGAAUGGAUCCACAUCUACGAAUUCGUACCAUAGAGAGAGUUAUCCGCUACACCGAGAUCGGAAGAGCACACGU
B25: target 1 insG 3' of 19,insU 3' of 1 (mixed)
RNA 1: CACCCGUGCAAAAAUGCAGGGGUCUAAAACUGAGCGGAUAACCUCUCUAUGG
RNA 2: GGGAAUGGAUCCACAUCUACGAAUUCGUACCAUGAGAGAGGUUAUCCGCUCAUCCGAGAUCGGAAGAGCACACGU
B26: target 1 C4G,G5U (mixed)
RNA 1: CACCCGUGCAAAAAUGCAGGGGUCUAAAACUGAGCGGAUAACCUCUCUAUGG
RNA 2: GGGAAUGGAUCCACAUCUACGAAUUCGUACCAUAGAGAGGUUAUCCUGUCACCGAGAUCGGAAGAGCACACGU
B27: target 1 insG 3' of 7,insG 3' of 6 (mixed)
RNA 1: CACCCGUGCAAAAAUGCAGGGGUCUAAAACUGAGCGGAUAACCUCUCUAUGG
RNA 2: GGGAAUGGAUCCACAUCUACGAAUUCGUACCAUAGAGAGGUUAUCGCGGCUCACCGAGAUCGGAAGAGCACACGU

The target of this data set is T1, EsCas13d, nuclease-dead (Eubacterium siraeum, UniProt B0MS50, R295A;H300A;R849A;H854A).
T1 sequence: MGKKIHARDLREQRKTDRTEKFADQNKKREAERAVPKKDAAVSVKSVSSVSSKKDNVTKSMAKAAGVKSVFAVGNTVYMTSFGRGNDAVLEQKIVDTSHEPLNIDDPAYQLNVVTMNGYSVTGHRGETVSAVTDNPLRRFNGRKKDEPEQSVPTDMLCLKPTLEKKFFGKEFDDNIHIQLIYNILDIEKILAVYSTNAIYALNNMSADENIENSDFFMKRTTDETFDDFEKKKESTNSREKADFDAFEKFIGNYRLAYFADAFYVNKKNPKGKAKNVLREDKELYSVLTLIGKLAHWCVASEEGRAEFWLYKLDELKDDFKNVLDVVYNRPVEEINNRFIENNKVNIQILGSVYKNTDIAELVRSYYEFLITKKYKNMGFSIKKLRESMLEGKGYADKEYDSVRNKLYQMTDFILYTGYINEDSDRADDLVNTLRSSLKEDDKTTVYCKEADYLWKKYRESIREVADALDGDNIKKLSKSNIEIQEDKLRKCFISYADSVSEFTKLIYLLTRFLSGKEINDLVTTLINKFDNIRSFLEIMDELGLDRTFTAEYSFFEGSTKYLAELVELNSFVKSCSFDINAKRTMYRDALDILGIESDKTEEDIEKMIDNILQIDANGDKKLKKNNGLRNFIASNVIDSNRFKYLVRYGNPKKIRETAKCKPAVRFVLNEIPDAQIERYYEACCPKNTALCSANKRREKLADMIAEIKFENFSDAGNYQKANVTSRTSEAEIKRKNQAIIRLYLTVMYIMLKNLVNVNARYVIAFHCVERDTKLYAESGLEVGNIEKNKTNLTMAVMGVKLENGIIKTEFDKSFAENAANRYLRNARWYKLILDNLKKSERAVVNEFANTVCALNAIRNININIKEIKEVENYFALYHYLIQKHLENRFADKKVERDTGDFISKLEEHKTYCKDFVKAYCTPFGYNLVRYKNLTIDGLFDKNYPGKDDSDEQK
Nature of the data set: crRNA (strand 1, pre-loaded); Mg2+; 40 mM Tris-HCl pH 7.5, 150 mM NaCl, 6 mM MgCl2, 1 mM DTT, 0.1% Tween-20, 0.2 mg/ml BSA; 25 C; 10 min per concentration, then washed. The conditions noted are these: tags: His6-TwinStrep-SUMO cleaved; N-terminal SNAP kept (SNAP-Surface 488); label: 3' end held by stalled T7 RNA polymerase.
Molecule B1 registered a Kd of 15.7 ± 1.1 nM. The molecule B2 came in with a Kd of 63 ± 12 nM. For the molecule B3, the dissociation constant Kd was determined as 28.5 ± 2.8 nM. Molecule B4 came in with a Kd of 26.4 ± 2.4 nM.

In turn, B5 showed a Kd of 24.2 ± 1.2 nM. The same measure for B6: 18.2 ± 1.4 nM; for B7: 11.7 ± 0.6 nM.

The molecule B8 gave a Kd of 9.6 ± 0.6 nM.

For B9, the Kd was 42 ± 6 nM. B10 showed a Kd of 19.9 ± 1.1 nM. As to B11, the affinity, expressed as Kd, was 6.31 ± 0.23 nM. Against the preceding molecule, the Kd is about 3.2-fold lower. For B12, binding was characterised by a dissociation constant (Kd) of 59 ± 7 nM. The same measure for B13: 85 ± 26 nM; for B14: 16.7 ± 1.3 nM. With B15, the Kd stood at 27.8 ± 3.3 nM. This Kd lies about 1.7-fold higher than the previous one. The same measure for B16: 28.8 ± 1.6 nM. The same measure for B17: 20 ± 1.3 nM; for B18: 100 ± 25 nM. As for B19, the Kd was found to be 87 ± 26 nM. For the molecule B20, binding was put at a Kd of 26 ± 5 nM.

As for B21, binding was characterised by a dissociation constant (Kd) of 26.9 ± 1.9 nM.

B22: binding was characterised by a dissociation constant (Kd) of 33.3 ± 1.5 nM. The Kd values of the last two molecules are within 1.5-fold of each other. In the case of B23 it was 14.8 ± 1.2 nM. The same measure for B24: 3.99 ± 0.33 nM; for B25: 63 ± 16 nM; for B26: 34.2 ± 2.7 nM. In the case of B27 it was 8.54 ± 0.3 nM.

Broadly, the Kd is the equilibrium constant for the complex coming apart.
